Data published in article PMC3169398, “Structures of phosphopantetheine adenylyltransferase from Burkholderia pseudomallei” (Acta Crystallographica Section F: Structural Biology and …, 2011).

B1: Phosphopantetheine adenylyltransferase from B. pseudomallei strain 1710b, tag removed (GPGS-ORF) (enzyme)
chain: MVVAVYPGTFDPLTRGHEDLVRRASSIFDTLVVGVADSRAKKPFFSLEERLKIANEVLGHYPNVKVMGFTGLLKDFVRANDARVIVRGLRAVSDFEYEFQMAGMNRYLLPDVETMFMTPSDQYQFISGTIVREIAQLGGDVSKFVFPSVEKWLTEKVAAMAQGPSA
notes: also called Bp PPAT; PPAT
B2: Phosphopantetheine adenylyltransferase from B. pseudomallei strain 1710b, with the full-length expression tag (…-ORF) (enzyme)
chain: B1 chain
notes: also called Bp PPAT; PPAT

Biological target: the molecule itself
Experiment: crystal structure

Protein	stoichiometry N
B1	6
B2	6
